Four substances from publication PMC5053906 can be followed below.

In experiment [1] the target is full length HA-mGluR2 (rat) (UniProt P31421). The experiment can be described thus: co-IP.
The target of experiment [2] is mGluR2-GFP truncated by removing the entire extracellular domain (rat). Description: single molecule pull-down.
Experiment [3] has as its target chimera with the ECD of mGluR1 and the TMD (and C-terminal) of mGluR2 (rat). Description: single molecule subunit counting.
The target is the same in experiment [4]. The experiment can be described thus: single molecule pull-down.
The target in experiment [5] is chimera with the ECD of mGluR2 and the TMD (and C-terminal) of mGluR1 (rat). Description: single molecule subunit counting.
For experiment [6] the target is unchanged. The experiment can be described thus: single molecule pull-down.

mGluR2-GFP truncated by removing the entire extracellular domain (domain or fragment), sequence (P31421 19-872): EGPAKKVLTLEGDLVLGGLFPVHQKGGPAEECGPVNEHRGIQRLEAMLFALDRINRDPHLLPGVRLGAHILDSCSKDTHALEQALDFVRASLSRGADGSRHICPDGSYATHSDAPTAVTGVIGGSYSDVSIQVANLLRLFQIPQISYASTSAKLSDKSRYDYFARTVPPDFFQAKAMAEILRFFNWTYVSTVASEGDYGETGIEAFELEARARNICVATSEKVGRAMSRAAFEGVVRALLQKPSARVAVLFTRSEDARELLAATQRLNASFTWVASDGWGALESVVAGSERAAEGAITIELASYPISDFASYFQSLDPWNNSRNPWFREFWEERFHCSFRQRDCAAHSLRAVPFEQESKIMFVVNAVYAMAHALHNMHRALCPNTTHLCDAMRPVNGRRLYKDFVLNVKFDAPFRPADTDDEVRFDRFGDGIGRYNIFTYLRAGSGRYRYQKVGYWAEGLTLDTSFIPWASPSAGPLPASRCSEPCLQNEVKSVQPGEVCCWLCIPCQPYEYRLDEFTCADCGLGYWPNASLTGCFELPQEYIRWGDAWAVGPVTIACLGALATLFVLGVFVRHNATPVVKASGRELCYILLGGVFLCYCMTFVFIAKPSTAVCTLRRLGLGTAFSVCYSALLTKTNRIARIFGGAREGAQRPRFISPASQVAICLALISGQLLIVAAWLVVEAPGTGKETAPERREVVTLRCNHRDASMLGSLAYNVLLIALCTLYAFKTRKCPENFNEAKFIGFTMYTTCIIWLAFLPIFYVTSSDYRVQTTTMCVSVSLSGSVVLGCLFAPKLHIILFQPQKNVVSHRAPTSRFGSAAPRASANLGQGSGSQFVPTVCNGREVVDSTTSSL
full length HA-mGluR2 (rat), sequence (P31421 19-872): as above
GFP-tagged isolated ligand binding domain of mGluR2 (domain or fragment), sequence (P31421 19-872): as above

In the case of “GFP-tagged isolated ligand binding domain of mGluR2 (domain or fragment)”, the percent of spots bleaching in a single step in experiment [1] is 92.4%.

In experiment [1], “mGluR2-GFP truncated by removing the entire extracellular domain (domain or fragment)” had a percent of spots bleaching in a single step of 89.6%. The same substance registered a percent of spots bleaching in two steps in experiment [2] of 30%.

As to “chimera with the ECD of mGluR1 and the TMD (and C-terminal) of mGluR2 (receptor)”, the stoichiometry N in experiment [3] and in experiment [4] was 2 in each case.

For the substance “chimera with the ECD of mGluR2 and the TMD (and C-terminal) of mGluR1 (receptor)”, the stoichiometry N in experiment [5] and in experiment [6] was 2 each time.
